Test results from publication PMC9167512, “Intradiol ring cleavage dioxygenases from herbivorous spider mites as a new detoxification enzyme family in animals” (BMC Biology, 2022).

Columns and labels:
Experiment in all cases: purified protein
Settings in all cases: 0.1 M PBS pH 7.5, 25 °C, O2 co-substrate (air), Fe enzyme, kcat corrected for iron content
Oc1ccc(Cl)cc1O = system: Oc1ccc(Cl)cc1O
purified protein [1] = substrate: Oc1ccccc1O
purified protein [2] = substrate: Cc1ccc(O)c(O)c1; format: biochemical, Tetranychus urticae

TuDOG15 (Tetranychus urticae) gave a Km (Oc1ccc(Cl)cc1O) of 72.0 ± 21.3 µM, a Vmax (Oc1ccc(Cl)cc1O) of 0.62 µM/min and a kcat (Oc1ccc(Cl)cc1O) of 0.0915 ± 0.0133 s⁻¹. The kcat/Km (Oc1ccc(Cl)cc1O) was 1270 ± 617 M⁻¹ s⁻¹.

TuDOG16 (Tetranychus urticae) was tested, and the Km (Oc1ccc(Cl)cc1O) was 154.3 ± 20.9 µM, the Vmax (Oc1ccc(Cl)cc1O) was 0.31 µM/min and the kcat (Oc1ccc(Cl)cc1O) was 0.0416 ± 0.00135 s⁻¹. The kcat/Km (Oc1ccc(Cl)cc1O) was 267 ± 66.7 M⁻¹ s⁻¹.

TuDOG11 (Tetranychus urticae) gave a Km (Oc1ccc(Cl)cc1O) of 25.2 ± 4.6 µM, a Vmax (Oc1ccc(Cl)cc1O) of 0.09 µM/min and a kcat (Oc1ccc(Cl)cc1O) of 0.00858 ± 0.00095 s⁻¹. The kcat/Km (Oc1ccc(Cl)cc1O) was 333 ± 200 M⁻¹ s⁻¹.

TuDOG7 (Tetranychus urticae) gave a Km (Oc1ccc(Cl)cc1O) of 115.2 ± 35.7 µM, a Vmax (Oc1ccc(Cl)cc1O) of 0.96 µM/min and a kcat (Oc1ccc(Cl)cc1O) of 0.051 ± 0.0122 s⁻¹. It also gave a kcat/Km (Oc1ccc(Cl)cc1O) of 450 ± 350 M⁻¹ s⁻¹.

In the case of TuDOG1 (Tetranychus urticae), the Km (Oc1ccc(Cl)cc1O) is reported as 21.2 ± 7.4 µM, the Vmax (Oc1ccc(Cl)cc1O) is reported as 0.08 µM/min and the kcat (Oc1ccc(Cl)cc1O) is reported as 0.0216 ± 0.0027 s⁻¹. The kcat/Km (Oc1ccc(Cl)cc1O) was 1020 ± 367 M⁻¹ s⁻¹.

B1: TuDOG1 (Tetranychus urticae) (protein)
chain: DVHRRGKFLPHDRTVINCASLNRKAHQHSSVLAPFTTEGPFFLPDDLKRSDITDGQKGIPLELTIKLTNAKDCTPISNFFIHAWQTNATGVYSGIDEDTAPLSGFRPTPVNRDRSLRGYQETDANGEVKFLTILPGWYSGRAIHIHIEVYAKDITDENKITYIGQFYFEHDFPLKLRKIYPYSTNTQRIIFNEQDYYYVHDHGDETTLDLKHNGAKFSSYATVAIDPTVTVHVQ
notes: signal peptide removed, N-terminal 6xHis kept, pJExpress 411, E. coli BL21(DE3), codon optimized (ATUM), 25-37 kDa
B1 was tested, and the Km (purified protein [1]) was 15.2 ± 4.5 µM, the Vmax (purified protein [1]) was 0.14 µM/min and the kcat (purified protein [1]) was 0.0378 ± 0.0027 s⁻¹. The kcat/Km (purified protein [1]) was 2480 ± 600 M⁻¹ s⁻¹, the Km (purified protein [2]) was 15.1 ± 2.7 µM and the Vmax (purified protein [2]) was 0.12 µM/min. It also gave a kcat (purified protein [2]) of 0.0324 ± 0.0027 s⁻¹ and a kcat/Km (purified protein [2]) of 2150 ± 1000 M⁻¹ s⁻¹.

B2: TuDOG15 (Tetranychus urticae) (protein)
chain: DHERPGKYLEHDSTVINCARYKREANQHSCVLAPYAVEGPYFLPDDLERSNLAEDKVGVSLDLAIRLVNSNDCTPLTNMFVHVWHADALGVYSGVPDLAELFVERMRQENKTLPPFWGPEGAYEGRRPGGPGGPGGPGGPGGPGDMEMPGRPTPVNNERFLRGYQVTNEAGEVNFKTIIPGWYTGRSLHIHVEVYSKNTTEPGEVNYIGQIFFKDDLPAELKLIEPYSLNQNILVLNPQDGIYNFAHGEQTKIQLENRETGYFGSMTFGINPNAH
B2 showed a Km (purified protein [1]) of 91.0 ± 21.2 µM, a Vmax (purified protein [1]) of 0.09 µM/min and a kcat (purified protein [1]) of 0.0133 ± 0.00148 s⁻¹. For the same molecule, the kcat/Km (purified protein [1]) was 150 ± 66.7 M⁻¹ s⁻¹, the Km (purified protein [2]) was 117.4 ± 46.5 µM and the Vmax (purified protein [2]) was 1.77 µM/min. It also gave a kcat (purified protein [2]) of 0.261 ± 0.0546 s⁻¹ and a kcat/Km (purified protein [2]) of 2230 ± 1170 M⁻¹ s⁻¹.

B3: TuDOG11 (Tetranychus urticae) (protein)
chain: HLQRPGKFLPHDRSIVDCARYKREANQHTCVLAPFTTEGPYFLPDDLERSDITDGQTGVNLDLNLKLTNAKDCSPLSNYFVHVWQANALGHYSGVNELFPVGFRPKPISGERFLRGYQKTNEDGEVNFKTIIPGWYVGRCIHIHVEVYAKNNTDGNAVNYIGQLYFERDIPSSLRLVEPYSTNVNEITLNDSDGVYLLTHGNDTLIDLVPQESGFRTDYIVAIDPDVSIKYDWLDI
notes: as for B1
B3 gave a Km (purified protein [1]) of 64.9 ± 24.3 µM, a Vmax (purified protein [1]) of 0.56 µM/min and a kcat (purified protein [1]) of 0.0534 ± 0.00382 s⁻¹. It also gave a kcat/Km (purified protein [1]) of 817 ± 150 M⁻¹ s⁻¹, a Km (purified protein [2]) of 153.9 ± 24.6 µM and a Vmax (purified protein [2]) of 0.58 µM/min. For the same molecule, the kcat (purified protein [2]) was 0.0553 ± 0.00382 s⁻¹ and the kcat/Km (purified protein [2]) was 367 ± 150 M⁻¹ s⁻¹.

B4: TuDOG16 (Tetranychus urticae) (protein)
chain: HSERPGKFLEHDRSIVNCARYKREANQHTCVLAPFATEGPYFLADDLERSDITDGQTGVNLDLNLKLTNAKDCSPLSGYFVHIWNANALGHYSGVQEFNKFPKQTFRPKPIYDTRWLRGYQVTNEDGEVNFKTIVPGWYYGRCLHIHVEVYSKNTTDTNAITYIGQLYFKRELPVQLKLVEPYSSNQNELKFNEQDKVFNGMHGNDTITELVFEENNAKTSFILALDPTVTTLTNGTVVN
notes: as for B1
B4 was tested, and the Km (purified protein [1]) was 51.0 ± 23.4 µM, the Vmax (purified protein [1]) was 0.06 µM/min and the kcat (purified protein [1]) was 0.00805 ± 0.00135 s⁻¹. For the same molecule, the kcat/Km (purified protein [1]) was 150 ± 50 M⁻¹ s⁻¹, the Km (purified protein [2]) was 52.4 ± 19.6 µM and the Vmax (purified protein [2]) was 0.14 µM/min. The kcat (purified protein [2]) was 0.0188 ± 0.00268 s⁻¹ and the kcat/Km (purified protein [2]) was 367 ± 133 M⁻¹ s⁻¹.

B5: TuDOG7 (Tetranychus urticae) (protein)
chain: ERSIEILNHDATVIDCARYKREANQHKCVITPFTTEGPYFLPDDYERSDITDGYTGVNLNLTLLLTNAKDCSPLSNYYVHIWNANAMGHYSGVKEFNFFDHPTFRPKPINNLRFLRGYQITNEDGLVNFNTIIPGWYFGRCIHIHVEIYDKNTTDGHAVSYIGQLYFNREMPAALKLIDPYSQNNNELTLNDQDIVFALSRGSDTILELIPEGNGYSASYVLSIDPTVKVENSVLPFEDPRNVSFIEH
In the case of B5, the Km (purified protein [1]) is reported as 74.9 ± 30.9 µM, the Vmax (purified protein [1]) is reported as 0.42 µM/min and the kcat (purified protein [1]) is reported as 0.0223 ± 0.00318 s⁻¹. It also gave a kcat/Km (purified protein [1]) of 300 ± 100 M⁻¹ s⁻¹, a Km (purified protein [2]) of 62.2 ± 42.3 µM and a Vmax (purified protein [2]) of 0.53 µM/min. It also gave a kcat (purified protein [2]) of 0.0282 ± 0.0122 s⁻¹ and a kcat/Km (purified protein [2]) of 450 ± 283 M⁻¹ s⁻¹.
